Experimental data taken from patent US20160022834A1.

Molecular target: rat anti-DNP (IgG^DNP, clone: LO-DNP-2) photocrosslinked with IBA-biotin
Assay: ELISA, anti-Fc HRP secondary on UV exposed IBA-biotin photocrosslinked IgG^DNP (antigen-bound or directly adsorbed), relative to no UV

With “HRP-conjugated IgG Fcγ specific goat anti-rat (antibody)” as the substance, how does the Fc recognition (percent activity at 2.0 J/cm^2 UV) read?
Its Fc recognition (percent activity at 2.0 J/cm^2 UV) is 75%.
